Results from patent US20090117126A1 (UCB, published 2009).

T1: recombinant human IL-17 (human, UniProt Q16552 20-155, limits assumed)
T1 sequence (looked up): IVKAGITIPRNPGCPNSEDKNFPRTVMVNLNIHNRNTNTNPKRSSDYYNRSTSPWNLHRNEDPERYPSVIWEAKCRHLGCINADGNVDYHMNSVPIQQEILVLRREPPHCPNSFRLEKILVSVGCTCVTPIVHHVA


How the values were obtained:
[1] = molecular target: T1, recombinant human IL-17; assay: cell-based or functional assay
[2] = molecular target: T1, recombinant human IL-17; assay: cell-based or functional assay; remark: listed apart in the source
[3] = molecular target: monkey recombinant IL-17 (monkey); assay: cell-based or functional assay
[4] = molecular target: T1, recombinant human IL-17; assay: BIAcore 3000; mean of the five replicates of Table 1; mean of the replicates of Table 1; CDP435 captured by anti-human IgG F(ab)2, IL-17 in solution
Description: The assay format used CDP435 captured by anti-human IgG F(ab)₂ with a titration of recombinant human IL-17 in the solution phase. BIA (Biamolecular Interaction Analysis) was performed using a BIAcore 3000 (BIAcore AB). Affinipure F(ab′)₂ Fragment goat anti-human IgG, F(ab)₂ fragment specific (Jackson ImmunoResearch) was immobilised on a CM5 Sensor Chip via amine coupling chemistry to a capture level of ≈9000 response units (RUs). HBS-EP buffer (10 mM HEPES pH 7.4, 0.15 M NaCl, 3 mM EDTA, 0.005% Surfactant P20, BIAcore AB) was used as the running buffer with a flow rate of 10 μl/min. An injection of CDP435 was made at 10 μl/min in order to obtain around 200 Ru of Fab captured by the immobilised anti-human IgG-F(ab)₂ to the surface. Human IL-17 was titrated over the captured antibody Fab fragment at various concentrations at a flow rate of 30 μl/min. The surface was regenerated by a 2×10 μl injection of 40 mM HCl, followed by a 5 μl injection of 5 mM NaOH at a flow rate of 10 μl/min.
Background subtraction binding curves were analysed using the BIAevaluation software (version 3.2) following standard procedures. Kinetic parameters were determined from the fitting algorithm. The affinity was measured at human IL-17 concentrations at or below 12.5 nM.

Binder | IC50 (read off the curve) [1] | IC50, human IL-17 (25 ng/ml) induced IL-6 production from Hela cells [2] | IC50, monkey IL-17 (25 ng/ml) induced IL-6 production from Hela cells [3] | Kd [4]
murine monoclonal antibody IL-17F4.100 (antibody, V domains shown) VH: QVQLKESGPGLVAPSQSLSITCTVSGFSLTTYGVHWIRQPPGKGLEWLVVIWSDGYTTYNSALKSRLSITKDNSKSQVFLKMNSLQTDDTAMYYCARNDGDYFYSMDYWGQGTSVTVSS VL: DVVMTQTPLSLPVSLGDQASFSCRSSQSLVHSNGNTYLHWYLQKPGQSPKLLIYKVSNRFSGVPDRFSGSGSGTDFTLKISRVEAEDLGVYFCSQSTHVPTFGGGTKLEIKR | ~0.2 µg/mL |  |  | 
CDP435 (PEGylated Fab fragment, gH11gL3 graft, 2 x 20 kDa PEG) (Fab, V domains shown, 20 kDa PEG-maleimide on the interchain cysteine of CL (position 214 by Kabat numbering, 218 by sequential numbering); 20 kDa PEG-maleimide on the interchain cysteine of CH1 (cys-233 by Kabat numbering, cys-222 by sequential numbering; C-terminal residue), no interchain disulphide after PEGylation) VH: EVQLVESGGGVVQPGGSLRLSCAVSGFSLTTYGVHWVRQAPGKGLEWVAVIWSDGYTTYNSALKSRFTISRDNSKNTVYLQMNSLRAEDTAVYYCARNDGDYFYSMDYWGQGTLVTVSS VL: DVQMTQSPSSLSASVGDRVTITCRSSQSLVHSNGNTYLHWYQQKPGKAPKLLIYKVSNRFSGVPSRFSGSGSGTDFTLTISSLQPEDFATYYCSQSTHVPTFGQGTKVEIKR |  | 0.158 µg/mL | 0.147 µg/mL | 0.224 nM
antibody Fab fragment of CDP435 (not PEGylated) (Fab, V domains shown) VH: EVQLVESGGGVVQPGGSLRLSCAVSGFSLTTYGVHWVRQAPGKGLEWVAVIWSDGYTTYNSALKSRFTISRDNSKNTVYLQMNSLRAEDTAVYYCARNDGDYFYSMDYWGQGTLVTVSS VL: DVQMTQSPSSLSASVGDRVTITCRSSQSLVHSNGNTYLHWYQQKPGKAPKLLIYKVSNRFSGVPSRFSGSGSGTDFTLTISSLQPEDFATYYCSQSTHVPTFGQGTKVEIKR | ~0.2 µg/mL |  |  | 
